Columns and labels:
[1] = target: biotinylated αvβ6; assay: inhibition of biotinylated αvβ6 binding to plate-coated LAP, streptavidin-HRP
[2] = target: integrin αvβ6 on NIH3T3β6 cells (NIH3T3 cells transfected with β6); assay: FACS on NIH3T3β6 cells, geometric MFI against antibody concentration

Row | Binder | IC50 relative to chimeric antibody (ratio to chimeric antibody) [1] | EC50 relative to chimeric antibody (ratio to chimeric antibody) [2]
1 | humanized 1A8 antibody VH1/Vκ1 (antibody, IgG1, V domains shown) VH: QVQFVQSGPELKKPGASVKVSCKGSSYTFTDYTMHWVKLAHAKTLEWIGVIDTYYGKTNYNQKFEGRATMTVDKSSSTAYMELARLRSEDSAVYYCARGGFRRGDRPSLRYAMDSWGQGTSVTVSS VL: DIVLTQSPDSLAVSLGERATINCRASQSVSISTYSYIHWFQQKPGQPPKLLIKYASNLESGVPDRFSGSGSGTDFTLNIHPVEEEDVGIYYCQHSWEIPYTFGGGTKVEIK | 1.02 | 1.13
2 | humanized 1A8 antibody VH2/Vκ2 (antibody, IgG1, V domains shown) VH: QVQLVQSGAEVKKPGASVKVSCKGSSYTFTDYTMHWVKLASAKTLEWIGVIDTYYGKTNYNQKFEGRATMTVDKSSSTAYMELSSLRSEDTAVYYCARGGFRRGDRPSLRYAMDSWGQGTLVTVSS VL: DIVLTQSPDSLAVSLGERATINCRASQSVSISTYSYIHWFQQKPGQPPKLLIKYASNLESGVPDRFSGSGSGTDFTLKISRVEEEDVGIYYCQHSWEIPYTFGGGTKVEIK | 1.32 | 2.4
3 | humanized 1A8 antibody VH1/Vκ3 (antibody, IgG1, V domains shown) VH: QVQFVQSGPELKKPGASVKVSCKGSSYTFTDYTMHWVKLAHAKTLEWIGVIDTYYGKTNYNQKFEGRATMTVDKSSSTAYMELARLRSEDSAVYYCARGGFRRGDRPSLRYAMDSWGQGTSVTVSS VL: DIVMTQSPDSLAVSLGERATINCRASQSVSISTYSYIHWFQQKPGQPPKLLIKYASNLESGVPDRFSGSGSGTDFTLKISRVEAEDVGIYYCQHSWEIPYTFGGGTKVEIK | 1.05 | 1.04
4 | humanized 1A8 antibody VH1/Vκ2 (antibody, IgG1, V domains shown) VH: QVQFVQSGPELKKPGASVKVSCKGSSYTFTDYTMHWVKLAHAKTLEWIGVIDTYYGKTNYNQKFEGRATMTVDKSSSTAYMELARLRSEDSAVYYCARGGFRRGDRPSLRYAMDSWGQGTSVTVSS VL: DIVLTQSPDSLAVSLGERATINCRASQSVSISTYSYIHWFQQKPGQPPKLLIKYASNLESGVPDRFSGSGSGTDFTLKISRVEEEDVGIYYCQHSWEIPYTFGGGTKVEIK | 1.19 | 1.07
5 | humanized 1A8 antibody VH2/Vκ1 (antibody, IgG1, V domains shown) VH: QVQLVQSGAEVKKPGASVKVSCKGSSYTFTDYTMHWVKLASAKTLEWIGVIDTYYGKTNYNQKFEGRATMTVDKSSSTAYMELSSLRSEDTAVYYCARGGFRRGDRPSLRYAMDSWGQGTLVTVSS VL: DIVLTQSPDSLAVSLGERATINCRASQSVSISTYSYIHWFQQKPGQPPKLLIKYASNLESGVPDRFSGSGSGTDFTLNIHPVEEEDVGIYYCQHSWEIPYTFGGGTKVEIK | 1.48 | 3

Other lines, results leading:

Row | IC50 relative to chimeric antibody (ratio to chimeric antibody) [1] | EC50 relative to chimeric antibody (ratio to chimeric antibody) [2] | Binder
6 | 1.74 | 2.96 | humanized 1A8 antibody VH4/Vκ3 (antibody, IgG1, V domains shown) VH: QVQLVQSGAEVKKPGASVKVSCKGSSYTFTDYTMHWVRLASAKTLEWIGVIDTYYGKTNYNQKFEGRATITVDKSSSTAYMELSSLRSEDTAVYYCARGGFRRGDRPSLRYAMDSWGQGTLVTVSS VL: DIVMTQSPDSLAVSLGERATINCRASQSVSISTYSYIHWFQQKPGQPPKLLIKYASNLESGVPDRFSGSGSGTDFTLKISRVEAEDVGIYYCQHSWEIPYTFGGGTKVEIK
7 | 0.98 | 2.46 | humanized 1A8 antibody VH2/Vκ3 (antibody, IgG1, V domains shown) VH: QVQLVQSGAEVKKPGASVKVSCKGSSYTFTDYTMHWVKLASAKTLEWIGVIDTYYGKTNYNQKFEGRATMTVDKSSSTAYMELSSLRSEDTAVYYCARGGFRRGDRPSLRYAMDSWGQGTLVTVSS VL: DIVMTQSPDSLAVSLGERATINCRASQSVSISTYSYIHWFQQKPGQPPKLLIKYASNLESGVPDRFSGSGSGTDFTLKISRVEAEDVGIYYCQHSWEIPYTFGGGTKVEIK
8 | 2.3 | 3.24 | humanized 1A8 antibody VH4/Vκ2 (antibody, IgG1, V domains shown) VH: QVQLVQSGAEVKKPGASVKVSCKGSSYTFTDYTMHWVRLASAKTLEWIGVIDTYYGKTNYNQKFEGRATITVDKSSSTAYMELSSLRSEDTAVYYCARGGFRRGDRPSLRYAMDSWGQGTLVTVSS VL: DIVLTQSPDSLAVSLGERATINCRASQSVSISTYSYIHWFQQKPGQPPKLLIKYASNLESGVPDRFSGSGSGTDFTLKISRVEEEDVGIYYCQHSWEIPYTFGGGTKVEIK
9 | 1.07 | 2.86 | humanized 1A8 antibody VH3/Vκ1 (antibody, IgG1, V domains shown) VH: QVQLVQSGAEVKKPGASVKVSCKGSSYTFTDYTMHWVRLASAKTLEWIGVIDTYYGKTNYNQKFEGRATMTVDKSSSTAYMELSSLRSEDTAVYYCARGGFRRGDRPSLRYAMDSWGQGTLVTVSS VL: DIVLTQSPDSLAVSLGERATINCRASQSVSISTYSYIHWFQQKPGQPPKLLIKYASNLESGVPDRFSGSGSGTDFTLNIHPVEEEDVGIYYCQHSWEIPYTFGGGTKVEIK
10 | 1.2 | 2.41 | humanized 1A8 antibody VH3/Vκ3 (antibody, IgG1, V domains shown) VH: QVQLVQSGAEVKKPGASVKVSCKGSSYTFTDYTMHWVRLASAKTLEWIGVIDTYYGKTNYNQKFEGRATMTVDKSSSTAYMELSSLRSEDTAVYYCARGGFRRGDRPSLRYAMDSWGQGTLVTVSS VL: DIVMTQSPDSLAVSLGERATINCRASQSVSISTYSYIHWFQQKPGQPPKLLIKYASNLESGVPDRFSGSGSGTDFTLKISRVEAEDVGIYYCQHSWEIPYTFGGGTKVEIK
11 | 1.93 | 3.57 | humanized 1A8 antibody VH4/Vκ1 (antibody, IgG1, V domains shown) VH: QVQLVQSGAEVKKPGASVKVSCKGSSYTFTDYTMHWVRLASAKTLEWIGVIDTYYGKTNYNQKFEGRATITVDKSSSTAYMELSSLRSEDTAVYYCARGGFRRGDRPSLRYAMDSWGQGTLVTVSS VL: DIVLTQSPDSLAVSLGERATINCRASQSVSISTYSYIHWFQQKPGQPPKLLIKYASNLESGVPDRFSGSGSGTDFTLNIHPVEEEDVGIYYCQHSWEIPYTFGGGTKVEIK

Reference: patent publication US20160031992A1
